Measured values: patent US12152264B2, “Phosphinothricin dehydrogenase mutant, genetically engineered bacterium and one-pot multi-enzyme synchronous directed evolution method” (ZHEJIANG UNIVERSITY OF TECHNOLOGY, priority 2020, dated 2024)

Tests used:
CP(=O)(O)CCC(=O)C(=O)O = assay: cells, lysate or membranes named; conditions: pH 7.0; 40.0 °C
[1] = test system: Pseudomonas fluorescens phosphinothricin dehydrogenase (PPTDH, PfGluDH; WP_150701510.1) mutant A164G_R205K_T332A, SEQ ID No.1; type: biochemical

Molecule	Km (CP(=O)(O)CCC(=O)C(=O)O) [mM]	kcat (CP(=O)(O)CCC(=O)C(=O)O) [s⁻¹]	kcat/Km (CP(=O)(O)CCC(=O)C(=O)O) [M⁻¹ s⁻¹]	catalytic efficiency (kcat/Km) for PPO, increase compared with the wild type [1] [times]
Pseudomonas fluorescens phosphinothricin dehydrogenase (PPTDH, PfGluDH; NCBI accession number WP_150701510.1), wild type (Pseudomonas azerbaijanoccidentalis)	6.12 ± 0.32	7.47 ± 0.22	1220	
CP(=O)(O)CCC(=O)C(=O)O [PPO, 2-carbonyl-4-(hydroxymethylphosphono)butyric acid]				145.83
